Measured values as given in the RNAGym collection of RNA variant scans (doi:10.7554/elife.80360).

B1: CPEB3 Ribozyme (parent)
chain: GGGGGCCACAGCAGAAGCGUUCACGUCGCGGCCCCUGUCAGAUUCUGGUGAAUCUGCGAAUUCUGCUGU

Variants of: B1
Test: self-cleavage, relative activity (ratio to wild type); higher = more cleavage; co-transcriptional

Point of comparison: U64C U67G, self-cleavage 0.824. Against it:
- G68C U69C — higher, 1.1
- U62A G68U — higher, 0.964
- U64A G68A — higher, 0.99
- U62G U67C — lower, 0.684
- U62G U67G — higher, 0.841
- G65U G68U — lower, 0.681
- G65U G68A — higher, 0.919
- U64A U67C — higher, 0.83
- C63A G65C — lower, 0.491
- U67C — higher, 0.997
- U67G — higher, 1.02
- U67A — higher, 0.989
- C63G U64A — lower, 0.689
- C63G U64C — lower, 0.407
- A60U G65C — lower, 0.362
- U67G U69G — higher, 1.11
- G65C U69G — higher, 0.862
- G65C U69C — higher, 1.05
- G65C C66A — lower, 0.788
- U61A G68A — higher, 1.05
- U61C U69A — higher, 0.946
- U61G C66U — lower, 0.659
- A60G G68C — higher, 0.889
- C63U C66G — lower, 0.456
- U61A U64G — lower, 0.529
- U61A U64C — lower, 0.585
- C66U U69G — higher, 1.06
- U61G U62C — higher, 0.873
- U61G U62A — higher, 0.871
- U61G U62G — lower, 0.71
- C63U U64A — lower, 0.73
- C63U U64C — higher, 0.836
- C66U G68A — higher, 0.976
- C66U G68U — higher, 0.969
- U64A G65C — lower, 0.39
- U64A G65U — higher, 0.827
- U64G C66A — lower, 0.422
- U62A C66U — lower, 0.737
- G65C U67A — lower, 0.589
- U64C G65U — lower, 0.699
- G65C G68C — lower, 0.633
- G65C G68U — lower, 0.406
- A60U U61A — lower, 0.623
- U64G U67G — lower, 0.769
- U64G U67C — lower, 0.788
- U64G U67A — higher, 0.88
- C63A C66G — lower, 0.402
- C63A C66U — lower, 0.619
- C63A C66A — lower, 0.304
- G68U — higher, 1.01
- G68A — higher, 1.01
- G68C — higher, 1
- A60G U64C — lower, 0.491
- A60G U64A — lower, 0.493
- A60G U64G — lower, 0.493
- A60U — lower, 0.526
- C63G G68C — lower, 0.706
- C63U U69C — higher, 1.06
- C66A U67C — higher, 0.925
- U62A C63U — lower, 0.705
- U62G C66G — lower, 0.442
- U61C C63G — lower, 0.427
- A60U U69A — lower, 0.536
- A60U U67G — lower, 0.615
- U62G G68C — higher, 0.866
- A60G U67A — higher, 0.944
- U61A C63G — lower, 0.516
- C63U U67A — higher, 0.94
- U61G U67G — lower, 0.808
- U62C C63A — lower, 0.753
- U62C C66U — lower, 0.654
- U62C C66G — lower, 0.567
- U61G U64C — lower, 0.64
- G65A U69C — higher, 1.05
- G65A U69A — higher, 0.932
- C63G U69G — higher, 0.921
- C66G U67C — higher, 0.914
- U64A U69C — higher, 1.05
- U64A U69G — higher, 0.988
- U64A U69A — higher, 0.964
- C63U G65A — lower, 0.672
- C63U G65C — lower, 0.419
- C63U G65U — lower, 0.772
- C66A U69C — higher, 1.04
- C66A U69G — higher, 0.882
- G65A C66A — lower, 0.75
- U61A U62A — higher, 0.839
- U62A G65U — lower, 0.717
- U62A G65C — lower, 0.413
- A60G U69C — higher, 1.03
- A60G U69A — higher, 0.994
- U61C G65A — lower, 0.36
- U62A U67G — higher, 0.918
- U61A C66U — higher, 0.83
- C63A U64G — lower, 0.783
- U61C U62G — lower, 0.487
- U61C U62A — lower, 0.554
- U62G U64A — lower, 0.49
- U62G U64C — lower, 0.502
- A60G U61C — lower, 0.365
- C63G U67A — lower, 0.614
- U67G G68A — higher, 1.08
- A60G U62A — lower, 0.576
- G68A U69A — higher, 1.08
- G68A U69C — higher, 1.05
- U64C U69G — higher, 1
- U64C U69A — higher, 0.972
- U61G G65C — lower, 0.449
- A60U G68U — lower, 0.66
- A60U G68A — lower, 0.637
- A60U G68C — lower, 0.556
- A60U C66G — lower, 0.405
- A60U C66A — lower, 0.403
- U64G G65U — lower, 0.672
- A60U U62G — lower, 0.679
- C63G G65U — lower, 0.525
- C63G G65A — lower, 0.461
- C66U U67A — higher, 1.02
- U61A U69G — higher, 1.02
- U61A U69C — higher, 1.06
- U64C G68U — lower, 0.803
- U64G — higher, 0.952
- U64C — higher, 0.941
- U64A — higher, 0.963
- U61C G68U — higher, 0.893
- C63U G68U — higher, 0.968
- C63U G68C — higher, 0.972
- U67C G68C — higher, 1.01
- U62C G65A — lower, 0.479
- U62C G65U — lower, 0.531
- U61G U69C — lower, 0.697
- U61G U69A — higher, 0.969
- U62A U69C — higher, 1.09
- U64C C66A — lower, 0.435
- G65U U69G — higher, 0.94
- C66A G68A — higher, 0.87
- U62A U64G — lower, 0.622
- U61C U67G — lower, 0.798
- U67C U69C — higher, 1.1
- A60U U64G — lower, 0.333
- A60U U64A — lower, 0.394
- U62G G65U — lower, 0.455
- C66G G68C — lower, 0.735
- C66G G68U — higher, 0.932
